In paper PMC3103430, “RecA Proteins from Deinococcus geothermalis and Deinococcus murrayi - Cloning, Purification and Biochemical Characterisation” (BMC Molecular Biology, 2011):

How the values were obtained:
[1] = test system: Nc1ncnc2c1ncn2[C@@H]1O[C@H](COP(=O)(O)OP(=O)(O)OP(=O)(O)O)[C@@H](O)[C@H]1O; assay: purified protein; format: biochemical, Deinococcus geothermalis; details: ssDNA-dependent (80-nt oligonucleotide, 12.16 μM nucleotides), 11.56 mM MgCl2, 20 mM Tris-HCl pH 7.5, 37 °C, Hill fit, n 2.9
[2] = test system: Nc1ncnc2c1ncn2[C@H]1C[C@H](O)[C@@H](COP(=O)(O)OP(=O)(O)OP(=O)(O)O)O1; assay: purified protein; format: biochemical, Deinococcus geothermalis; details: ssDNA-dependent (80-nt oligonucleotide, 12.16 μM nucleotides), 11.56 mM MgCl2, 20 mM Tris-HCl pH 7.5, 37 °C, Hill fit, n 1.2

## DgeRecA (Deinococcus geothermalis DSM 11300)
[1]
  Km: 0.56 ± 0.018 mM
  kcat: 0.15 ± 0.004 s⁻¹
  kcat/Km: 270 ± 12 M⁻¹ s⁻¹
[2]
  Km: 0.62 ± 0.023 mM
  kcat: 0.21 ± 0.007 s⁻¹
  kcat/Km: 330 ± 10 M⁻¹ s⁻¹
